According to IntAct's records for PubMed 22778397:

B1: RNA-binding protein FUS (Homo sapiens), P35637 (parent)
chain: MASNDYTQQATQSYGAYPTQPGQGYSQQSSQPYGQQSYSGYSQSTDTSGYGQSSYSSYGQSQNTGYGTQSTPQGYGSTGGYGSSQSSQSSYGQQSSYPGYGQQPAPSSTSGSYGSSSQSSSYGQPQSGSYSQQPSYGGQQQSYGQQQSYNPPQGYGQQNQYNSSSGGGGGGGGGGNYGQDQSSMSSGGGSGGGYGNQDQSGGGGSGGYGQQDRGGRGRGGSGGGGGGGGGGYNRSSGGYEPRGRGGGRGGRGGMGGSDRGGFNKFGGPRDQGSRHDSEQDNSDNNTIFVQGLGENVTIESVADYFKQIGIIKTNKKTGQPMINLYTDRETGKLKGEATVSFDDPPSAKAAIDWFDGKEFSGNPIKVSFATRRADFNRGGGNGRGGRGRGGPMGRGGYGGGGSGGGGRGGFPSGGGGGGGQQRAGDWKCPNPTCENMNFSWRNECNQCKAPKPDGPGGGPGGSHMGGNYGDDRRGGRGGYDRGGYRGRGGDRGGFRGGRGGGDRGGFGPGKMDSRGEHRQDRRERPY

Variants of: B1
Details: with TNPO1, Q92973-2
Chain of TNPO1, Q92973-2 (Q92973 9-898): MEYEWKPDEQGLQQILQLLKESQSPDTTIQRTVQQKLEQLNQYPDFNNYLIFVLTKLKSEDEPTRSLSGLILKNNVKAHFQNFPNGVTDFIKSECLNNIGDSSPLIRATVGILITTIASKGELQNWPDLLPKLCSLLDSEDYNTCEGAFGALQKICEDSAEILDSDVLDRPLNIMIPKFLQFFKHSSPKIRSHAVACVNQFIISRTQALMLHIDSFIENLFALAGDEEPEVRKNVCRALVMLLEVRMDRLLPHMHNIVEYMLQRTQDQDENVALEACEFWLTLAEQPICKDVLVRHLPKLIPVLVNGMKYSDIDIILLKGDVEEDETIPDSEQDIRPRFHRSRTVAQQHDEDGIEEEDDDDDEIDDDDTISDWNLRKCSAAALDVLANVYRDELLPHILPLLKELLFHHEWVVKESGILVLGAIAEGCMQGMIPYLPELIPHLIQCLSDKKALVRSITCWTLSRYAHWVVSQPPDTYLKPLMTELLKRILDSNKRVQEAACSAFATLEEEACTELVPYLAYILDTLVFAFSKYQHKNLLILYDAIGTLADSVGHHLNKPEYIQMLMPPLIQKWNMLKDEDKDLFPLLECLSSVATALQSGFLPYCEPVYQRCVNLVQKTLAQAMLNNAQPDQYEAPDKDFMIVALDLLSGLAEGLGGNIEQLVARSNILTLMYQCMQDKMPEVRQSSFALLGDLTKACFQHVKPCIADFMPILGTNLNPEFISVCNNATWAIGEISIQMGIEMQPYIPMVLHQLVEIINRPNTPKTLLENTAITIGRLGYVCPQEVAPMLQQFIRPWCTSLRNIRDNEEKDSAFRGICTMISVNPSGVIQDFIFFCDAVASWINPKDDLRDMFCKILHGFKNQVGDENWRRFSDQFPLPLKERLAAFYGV

Row | Variant | effect of a mutation on the interaction
1 | R514A;R518A;R521A;R522A | disrupting interaction strength
2 | R518A | decreasing interaction strength
3 | R521C | decreasing interaction strength
4 | P508A;G509A;K510A;M511A | decreasing interaction strength
5 | R522A | decreasing interaction strength
6 | R521A;R522A | decreasing interaction strength
7 | R514A;R518A | decreasing interaction strength
8 | H517Q | decreasing interaction strength

The remaining lines, values ahead:

Row | effect of a mutation on the interaction | Variant
9 | decreasing interaction strength | R524S
10 | decreasing interaction strength | P525A;Y526A
11 | decreasing interaction strength | P525A
12 | decreasing interaction strength | P525L
13 | decreasing interaction strength | Y526A
